# Columns and labels:
# [1] = molecular target: sFlt-1 (soluble splice variant of VEGF receptor 1) in human serum (human) (UniProt P17948); assay: cell-based or functional assay
# [2] = molecular target: sFlt-1 (soluble splice variant of VEGF receptor 1) in human serum (human) (UniProt P17948); assay: adsorption of sFlt-1 from human serum on ligand column (agarose), sFlt-1 ELISA of flow through
# [3] = molecular target: sFlt-1 (soluble splice variant of VEGF receptor 1) in human serum (human) (UniProt P17948); assay: adsorption of sFlt-1 from preeclampsia patient serum on agarose column, sFlt-1 ELISA before and after
# [4] = molecular target: sFlt-1 (soluble splice variant of VEGF receptor 1) in human serum (human) (UniProt P17948); assay: single run of serum of 10 preeclampsia patients over scVEGF^165 column, sFlt-1 ELISA before and after
# [5] = molecular target: T1, VEGF-Trap (chimeric protein of VEGFR-1 domain 2 and VEGFR-2 domain 3 fused to Fc) (UniProt P17948 129-230; P35968 225-327); assay: solid phase ELISA, VEGF/PIGF variant immobilised, VEGF-trap titrated 0.1 to 750 nM, Kd from saturation curve
# T1 construct: also called VEGFR1/R2 trap; not shown: Fc segment
# Method: ELISA style binding assays were performed as described previously (Agarwal et al., 2012). In brief, 10 µg/ml of recombinant VEGF, PIGF and their mutant variants were individually immobilized together with bovine serum albumin (BSA) on 96 well plate (Transparente Immuno Standardmodule, Thermo scientific, Denmark), while matrix loaded only with BSA served as a control. A binding saturation curve was generated by applying increasing concentrations of VEGFR1/R2 trap ranging from 0,1 to 750 nM, followed by detection of the ligand-receptor complex using a horseradish peroxidase (HRP)-conjugated antibody against the mouse Fc domain of VEGFR1/R2 trap. Luminescence was quantified at optical density (OD) 450 nm using a by spectrophotometer (Thermo ScientificMultiskan GO, Finland).
# single chain VEGF^165 dimer (scVEGF^165), sequence (P49151 other isoform, or with tags, fused parts or gaps): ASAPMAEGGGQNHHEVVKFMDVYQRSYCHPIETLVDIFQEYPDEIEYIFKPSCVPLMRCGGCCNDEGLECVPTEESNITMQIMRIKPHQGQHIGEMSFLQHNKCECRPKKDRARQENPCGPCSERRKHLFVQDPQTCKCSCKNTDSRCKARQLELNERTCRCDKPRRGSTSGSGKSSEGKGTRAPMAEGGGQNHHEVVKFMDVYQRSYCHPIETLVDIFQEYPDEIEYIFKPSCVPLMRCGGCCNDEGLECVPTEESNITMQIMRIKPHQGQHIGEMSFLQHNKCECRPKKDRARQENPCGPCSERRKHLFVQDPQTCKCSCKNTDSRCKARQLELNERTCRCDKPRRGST
# sFlt-1 (soluble splice variant of VEGF receptor 1) in human serum (human), sequence (P17948 other isoform, or with tags, fused parts or gaps mutant): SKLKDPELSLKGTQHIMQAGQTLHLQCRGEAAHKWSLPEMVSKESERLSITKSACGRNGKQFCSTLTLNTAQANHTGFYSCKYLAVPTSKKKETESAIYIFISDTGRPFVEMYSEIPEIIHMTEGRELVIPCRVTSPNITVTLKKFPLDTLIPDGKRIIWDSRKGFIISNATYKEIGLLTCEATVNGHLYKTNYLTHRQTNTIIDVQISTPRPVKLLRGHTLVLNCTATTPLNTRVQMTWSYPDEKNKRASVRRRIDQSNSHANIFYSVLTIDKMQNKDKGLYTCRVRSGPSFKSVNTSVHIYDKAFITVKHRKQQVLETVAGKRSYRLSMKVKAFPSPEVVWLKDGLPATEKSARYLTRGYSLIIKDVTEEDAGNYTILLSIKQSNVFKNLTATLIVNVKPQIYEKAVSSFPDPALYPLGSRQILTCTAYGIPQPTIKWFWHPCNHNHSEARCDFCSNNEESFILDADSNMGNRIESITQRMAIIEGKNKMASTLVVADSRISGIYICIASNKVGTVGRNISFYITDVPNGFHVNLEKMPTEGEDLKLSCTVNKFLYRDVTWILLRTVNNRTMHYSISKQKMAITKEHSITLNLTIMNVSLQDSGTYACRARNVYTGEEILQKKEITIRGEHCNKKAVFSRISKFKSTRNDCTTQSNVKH
# T1 sequence (P17948 other isoform, or with tags, fused parts or gaps mutant): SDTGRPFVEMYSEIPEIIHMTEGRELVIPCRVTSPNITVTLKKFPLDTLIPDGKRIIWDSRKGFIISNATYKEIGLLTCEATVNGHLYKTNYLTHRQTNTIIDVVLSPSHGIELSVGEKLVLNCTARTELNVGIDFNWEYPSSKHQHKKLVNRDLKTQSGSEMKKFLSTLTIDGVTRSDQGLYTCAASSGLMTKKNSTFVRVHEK
PIGF release (free PIGF in serum after against before the column) [1] [fold],"PIGF release (free PIGF in serum after against before the column), median [1] [fold]",VEGF release (free VEGF in serum after against before the column) [1] [fold],"VEGF release (free VEGF in serum after against before the column), median [1] [fold]",reduction of sFlt-1 in a single run [2] [%],reduction of sFlt-1 in a single run [3] [%],sFlt-1 reduction (mean of 10 patient samples) [4] [%],sFlt-1 reduction (median of 10 patient samples) [4] [%],reduction of sFlt-1 in a single passage [3] [%],fold higher affinity compared to moPIGF [5] [fold],Molecule
20,14.6,9.07,8.74,86.2,89.9,88,92.2,–,–,single chain VEGF^165 dimer (scVEGF^165) (from UniProt P49151 27-190) (ligand)
–,–,–,–,–,–,–,–,77.2,2.6,"monomeric wildtype VEGF^165 (moVEGF^165) (ligand, human, UniProt P15692-4 27-191, looked up, mature; Expressed from a monomeric construct in HEK293T cells; not shown: N-terminal Strep tag from the expression vector) APMAEGGGQNHHEVVKFMDVYQRSYCHPIETLVDIFQEYPDEIEYIFKPSCVPLMRCGGCCNDEGLECVPTEESNITMQIMRIKPHQGQHIGEMSFLQHNKCECRPKKDRARQENPCGPCSERRKHLFVQDPQTCKCSCKNTDSRCKARQLELNERTCRCDKPRR"
–,–,–,–,–,–,–,–,46.2,–,"monomeric PIGF (moPIGF) (ligand, UniProt P49763-2 19-149, looked up, not shown: small tags and cut ends) LPAVPPQQWALSAGNGSSEVEVVPFQEVWGRSYCRALERLVDVVSEYPSEVEHMFSPSCVSLLRCTGCCGDENLHCVPVETANVTMQLLKIRSGDRPSYVELTFSQHVRCECRPLREKMKPERCGDAVPRR"

# — patent US20230119290A1 (UNIVERSIT T ZU K LN, published 2023)
